According to publication PMC4069103, “Computational Design of a pH Stable Enzyme: Understanding Molecular Mechanism of Penicillin Acylase's Adaptation to Alkaline Conditions” (PLoS ONE, 2014):

Substrate: O=C(Cc1ccccc1)Nc1ccc([N+](=O)[O-])c(C(=O)O)c1
Assay: purified protein
Format: biochemical, Escherichia coli
Settings: pH 7.5, 25°C, 10 mM phosphate, 0.1 M KCl, hydrolysis

B1: penicillin acylase from Escherichia coli (EcPA) (Escherichia coli) (protein)
chain 1: EQSSSEIKIVRDEYGMPHIYANDTWHLFYGYGYVVAQDRLFQMEMARRSTQGTVAEVLGKDFVKFDKDIRRNYWPDAIRAQIAALSPEDMSILQGYADGMNAWIDKVNTNPETLLPKQFNTFGFTPKRWEPFDVAMIFVGTMANRFSDSTSEIDNLALLTALKDKYGVSQGMAVFNQLKWLVNPSAPTTIAVQESNYPLKFNQQNSQTA
chain 2: SNMWVIGKSKAQDAKAIMVNGPQFGWYAPAYTYGIGLHGAGYDVTGNTPFAYPGLVFGHNGVISWGSTAGFGDDVDIFAERLSAEKPGYYLHNGKWVKMLSREETITVKNGQAETFTVWRTVHGNILQTDQTTQTAYAKSRAWDGKEVASLLAWTHQMKAKNWQEWTQQAAKQALTINWYYADVNGNIGYVHTGAYPDRQSGHDPRLPVPGTGKWDWKGLLPFEMNPKVYNPQSGYIANWNNSPQKDYPASDLFAFLWGGADRVTEIDRLLEQKPRLTADQAWDVIRQTSRQDLNLRLFLPTLQAATSGLTQSDPRRQLVETLTRWDGINLLNDDGKTWQQPGSAILNVWLTSMLKRTVVAAVPMPFDKWYSASGYETTQDGPTGSLNISVGAKILYEAVQGDKSPIPQAVDLFAGKPQQEVVLAALEDTWETLSKRYGNNVSNWKTPAMALTFRANNFFGVPQAAAEETRHQAEYQNRGTENDMIVFSPTTSDRPVLAWDVVAPGQSGFIAPDGTVDKHYEDQLKMYENFGRKSLWLTKQDVEAHKESQEVLHVQR
notes: heterodimer of alpha (209 residues) and beta (557 residues) chains matured from one pac precursor; modified pBR322 vector with cat gene, expressed in E. coli TG-1, osmotic shock, hydrophobic chromatography; no tag mentioned
Km: 25.0 ± 0.8 µM
kcat: 25 ± 1.4 s⁻¹
kcat/Km: 1e+06 ± 90000 M⁻¹ s⁻¹
